Experimental findings from US20260055205A1 (published 2026) are described below.

The labels stand for the following.
T1: cyCD3e-Fc (cynomolgus monkey, UniProt Q95LI5 22-117)
T1 sequence (looked up): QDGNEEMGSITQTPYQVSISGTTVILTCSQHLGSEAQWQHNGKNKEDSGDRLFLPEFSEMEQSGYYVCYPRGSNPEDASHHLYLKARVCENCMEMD

B1: CD3.227 (bispecific antibody, V domains shown)
VH: EVQLVESGGGIVQPGGSLRLSCAASGFTFNTYAMNWVRQAPGKGLEWVGRIRTKRNNYATYYADSVKGRFTISRDDSKNTVYLQMNSLKTEDTAVYYCVRHENFGNSYVSWFAHWGQGTLVTVSS
VL: ELVVTQEPSLTVSPGGTVTLTCRSSNGAVTSSNYANWVQQKPGQAPRGLIGGTNKRAPGTPARFSGSLLGGKAALTLSGVQPEDEAVYYCALWYPNLWVFGGGTKLTVL
notes: paTCE with PSMA.262; also called AC3658
B2: CD3.230 (bispecific antibody, V domains shown)
VH: B1 VH with N30S, R55T
VL: B1 VL
notes: paTCE with PSMA.262; also called AC3661
B3: CD3.228 (bispecific antibody, V domains shown)
VH: B1 VH with N30S
VL: B1 VL
notes: paTCE with PSMA.262; also called AC3659
B4: CD3.229 (bispecific antibody, V domains shown)
VH: B1 VH with R55T
VL: B1 VL
notes: paTCE with PSMA.262; also called AC3660
B5: AC2717 (PSMA.5 with CD3.23) (bispecific antibody, V domains shown)
VHH: QVQLVESGGGVVQPGRSLRLSCAASGRTFGIYVMGWVRQAPGKEREFVAAISWSGSNRLVSDSVKGRFTISRDNSKNTLYLQMNSLRAEDTAVYYCAASNRLYGRTWYDFNESDYWGQGTQVTVSS
VL: B1 VL
VH: B1 VH with V5L, R19K, G49A, T53S, R55Y, G68D, S87N
notes: Domains of one TCE chain; also called VHH3
B6: PSMA.6 (uTCE of AC2728) (bispecific antibody, V domains shown)
VH: B5 VHH with Q1E, Y95F, Q121T
notes: TCE with CD3.23; also called VHH14
B7: AC3471 (PSMA.262 with CD3.23) (bispecific antibody, V domains shown)
VHH: B5 VHH with M34W, A49G, L59K, R101K
VL: B1 VL
VH: B1 VH with V5L, R19K, G49A, T53S, R55Y, G68D, S87N
notes: Domains of one TCE chain; also called CD3.23 WT
B8: PSMA.286 (bispecific antibody, V domains shown)
VH: B5 VHH with M34W, A49G, L59K
notes: TCE with CD3.23; also called AC3495
B9: PSMA.276 (bispecific antibody, V domains shown)
VH: B5 VHH with V33A, A49G, L59K, L102M
notes: TCE with CD3.23; also called AC3485
B10: PSMA.282 (bispecific antibody, V domains shown)
VH: B5 VHH with M34W, I51M, L59K, L102M
notes: TCE with CD3.23; also called AC3491
B11: PSMA.283 (bispecific antibody, V domains shown)
VH: B5 VHH with V37F, I51M, L59K, L102M
notes: TCE with CD3.23; also called AC3492
B12: PSMA.271 (bispecific antibody, V domains shown)
VH: B5 VHH with V37F, A49G, L59K, L102T
notes: TCE with CD3.23; also called AC3480
B13: PSMA.270 (bispecific antibody, V domains shown)
VH: B5 VHH with M34W, A49G, L59K, L102T
notes: TCE with CD3.23; also called AC3479
B14: PSMA.272 (bispecific antibody, V domains shown)
VH: B5 VHH with V33A, I51M, L59K, L102T
notes: TCE with CD3.23; also called AC3481
B15: PSMA.287 (bispecific antibody, V domains shown)
VH: B5 VHH with V37F, A49G, L59K
notes: TCE with CD3.23; also called AC3496
B16: PSMA.290 (bispecific antibody, V domains shown)
VH: B5 VHH with M34W, I51M, L59K
notes: TCE with CD3.23; also called AC3499
B17: PSMA.291 (bispecific antibody, V domains shown)
VH: B5 VHH with V37F, I51M, L59K
notes: TCE with CD3.23; also called AC3500
B18: PSMA.269 (bispecific antibody, V domains shown)
VH: B5 VHH with M34F, A49G, L59K, L102T
notes: TCE with CD3.23; also called AC3478
B19: PSMA.275 (bispecific antibody, V domains shown)
VH: B5 VHH with V37F, I51M, L59K, L102T
notes: TCE with CD3.23; also called AC3484
B20: PSMA.264 (bispecific antibody, V domains shown)
VH: B5 VHH with V33A, I51M, L59K, R101K
notes: TCE with CD3.23; also called AC3473
B21: PSMA.268 (bispecific antibody, V domains shown)
VH: B5 VHH with V33A, A49G, L59K, L102T
notes: TCE with CD3.23; also called AC3477
B22: PSMA.280 (bispecific antibody, V domains shown)
VH: B5 VHH with V33A, I51M, L59K, L102M
notes: TCE with CD3.23; also called AC3489
B23: PSMA.273 (bispecific antibody, V domains shown)
VH: B5 VHH with M34F, I51M, L59K, L102T
notes: TCE with CD3.23; also called AC3482
B24: PSMA.284 (bispecific antibody, V domains shown)
VH: B5 VHH with V33A, A49G, L59K
notes: TCE with CD3.23; also called AC3493
B25: PSMA.261 (bispecific antibody, V domains shown)
VH: B5 VHH with M34F, A49G, L59K, R101K
notes: TCE with CD3.23; also called AC3470
B26: PSMA.278 (bispecific antibody, V domains shown)
VH: B5 VHH with M34W, A49G, L59K, L102M
notes: TCE with CD3.23; also called AC3487
B27: PSMA.279 (bispecific antibody, V domains shown)
VH: B5 VHH with V37F, A49G, L59K, L102M
notes: TCE with CD3.23; also called AC3488
B28: PSMA.288 (bispecific antibody, V domains shown)
VH: B5 VHH with V33A, I51M, L59K
notes: TCE with CD3.23; also called AC3497
B29: PSMA.266 (bispecific antibody, V domains shown)
VH: B5 VHH with M34W, I51M, L59K, R101K
notes: TCE with CD3.23; also called AC3475
B30: PSMA.281 (bispecific antibody, V domains shown)
VH: B5 VHH with M34F, I51M, L59K, L102M
notes: TCE with CD3.23; also called AC3490
B31: PSMA.285 (bispecific antibody, V domains shown)
VH: B5 VHH with M34F, A49G, L59K
notes: TCE with CD3.23; also called AC3494
B32: PSMA.289 (bispecific antibody, V domains shown)
VH: B5 VHH with M34F, I51M, L59K
notes: TCE with CD3.23; also called AC3498
B33: PSMA.277 (bispecific antibody, V domains shown)
VH: B5 VHH with M34F, A49G, L59K, L102M
notes: TCE with CD3.23; also called AC3486
B34: PSMA.274 (bispecific antibody, V domains shown)
VH: B5 VHH with M34W, I51M, L59K, L102T
notes: TCE with CD3.23; also called AC3483
B35: PSMA.267 (bispecific antibody, V domains shown)
VH: B5 VHH with V37F, I51M, L59K, R101K
notes: TCE with CD3.23; also called AC3476
B36: PSMA.265 (bispecific antibody, V domains shown)
VH: B5 VHH with M34F, I51M, L59K, R101K
notes: TCE with CD3.23; also called AC3474

Where a chain is given by its changes, count along the chain named.

As usually defined, the Kd is the constant that tells how readily two partners part at equilibrium. The koff is the rate constant with which the complex falls apart. As a reminder, the kon is a measure of how fast the partners come together.

huCD3e-Fc, sequence (P07766 23-126): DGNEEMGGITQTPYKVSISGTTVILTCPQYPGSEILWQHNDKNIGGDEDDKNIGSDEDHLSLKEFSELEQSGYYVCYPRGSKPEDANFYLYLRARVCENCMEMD

The target of one experiment is T1, cyCD3e-Fc. Kind of experiment: Octet, purified. The method, then:
(§1) Pool 2 consisted of paTCE molecules each containing PSMA.262 and one of 64 CD3.23 mutation combination variants. Stability and affinity of the individually expressed molecules in the form of crude lysate was evaluated by Octet. […] The binding of these anti-CD3 molecules (CD3.227, CD3.228, CD3.229 and CD3.230) to human and cynomolgus CD3 was measured by Octet and the Tm was measured by Differential Scanning Fluorimetry. All variants were paired with PSMA.262 except for CD3.23 which was paired with PSMA.5.
In general terms: BLI is a label-free optical method that tracks binding on a fibre tip over time.
With B1, the Kd amounted to 80 nM, the koff was 0.0253 s⁻¹ and the kon is 315000 M⁻¹ s⁻¹.
The corresponding values for B2 are 216 nM, 0.0726 s⁻¹ and 336000 M⁻¹ s⁻¹.
The corresponding values for B3 are 80 nM, 0.0266 s⁻¹ and 334000 M⁻¹ s⁻¹.
The corresponding values for B4 are 193 nM, 0.0611 s⁻¹ and 317000 M⁻¹ s⁻¹.
Take B5: the Kd turned out to be 130 nM, the koff is 0.0312 s⁻¹ and the kon was 240000 M⁻¹ s⁻¹.

The target of another experiment is huCD3e-Fc (human, UniProt P07766 23-126). Kind of experiment: Octet, purified. Here is the method:
as §1
On to B1, for which the Kd was found to be 57 nM, the koff was found to be 0.0196 s⁻¹ and the kon stood at 342000 M⁻¹ s⁻¹.
The corresponding values for B2 are 195 nM, 0.0633 s⁻¹ and 325000 M⁻¹ s⁻¹.
B3: the Kd was determined as 69 nM, the koff is 0.0217 s⁻¹ and the kon was found to be 317000 M⁻¹ s⁻¹.
The corresponding values for B4 are 162 nM, 0.052 s⁻¹ and 321000 M⁻¹ s⁻¹.
For the molecule B5, the Kd turned out to be 131 nM, the koff is 0.0289 s⁻¹ and the kon is 220000 M⁻¹ s⁻¹.

A further experiment deals with T2, human PSMA-Fc (human, UniProt Q04609 44-750).
T2 construct: also called Human PSMA-Fc fusion
T2 sequence (Q04609 44-750 limits assumed): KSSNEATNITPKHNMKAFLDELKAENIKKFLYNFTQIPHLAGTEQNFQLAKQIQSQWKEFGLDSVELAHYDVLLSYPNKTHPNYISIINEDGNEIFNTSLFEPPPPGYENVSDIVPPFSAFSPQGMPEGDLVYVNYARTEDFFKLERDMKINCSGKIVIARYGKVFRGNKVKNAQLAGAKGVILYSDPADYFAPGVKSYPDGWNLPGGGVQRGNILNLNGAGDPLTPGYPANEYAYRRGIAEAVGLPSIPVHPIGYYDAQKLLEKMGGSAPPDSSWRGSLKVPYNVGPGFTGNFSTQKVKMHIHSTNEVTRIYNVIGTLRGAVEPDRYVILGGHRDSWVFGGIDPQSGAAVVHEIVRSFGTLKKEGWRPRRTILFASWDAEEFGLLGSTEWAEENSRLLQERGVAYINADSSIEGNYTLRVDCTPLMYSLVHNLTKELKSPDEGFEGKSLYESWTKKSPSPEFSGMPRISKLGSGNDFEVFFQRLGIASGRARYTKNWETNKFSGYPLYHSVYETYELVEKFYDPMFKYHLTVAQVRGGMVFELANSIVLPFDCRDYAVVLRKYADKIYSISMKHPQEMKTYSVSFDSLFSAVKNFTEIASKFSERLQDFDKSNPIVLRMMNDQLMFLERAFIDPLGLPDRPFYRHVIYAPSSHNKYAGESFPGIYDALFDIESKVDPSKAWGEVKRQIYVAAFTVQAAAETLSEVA
Kind of experiment: Octet, PSMA-Fc. The method, then: Binding affinity of select PSMA PTE variants was tested by Octet.
For B6, the dissociation constant Kd was 2.3 nM, the koff is 0.000235 s⁻¹ and the kon was found to be 96300 M⁻¹ s⁻¹.

The target in another experiment is T3, human PSMA (human, UniProt Q04609 44-750, limits assumed).
T3 construct: also called huPSMA; hPSMA
T3 sequence (Q04609 44-750 limits assumed): as above
The experiment can be described thus: binding screen.
In turn, B5 showed a Kd of 4.8 nM.
Still for that read-out and setting: the same measure for B7: 2.7 nM.
As for B8, the binding result is “no binding”.
The molecule B9 displayed a Kd of 10.5 nM.
On the same count and under the same terms, the result for B10 reads 8.7 nM.
Still for that read-out and setting: the same measure for B11: 3.5 nM; for B12: 9.1 nM.
The same measure, in the same setting: the result for B13 reads 6.5 nM; that for B14, 504 nM; that for B15, 2.3 nM.
As for B16, the Kd came out at 5.5 nM.
On the same count and under the same terms, the result for B17 reads 2.6 nM.
The same measure, in the same setting: the result for B18 reads 5.5 nM; that for B19, 20.5 nM.
The same measure, in the same setting: the same measure for B20: 18.6 nM; for B21: 131 nM.
Molecule B22 showed a Kd of 16.3 nM.
B23: the Kd amounted to 16.6 nM.
On the same count and under the same terms, the result for B24 reads 4.1 nM; that for B25, 2.1 nM.
In the case of B26, the Kd stood at 3.9 nM.
Same read-out and setting: the same measure for B27: 2.3 nM; for B28: 6 nM; for B29: 4.6 nM.
As for B30, the Kd was 5.3 nM.
Same read-out and setting: the same measure for B31: 3.1 nM; for B32: 6.2 nM.
On to B33, for which binding was put at a Kd of 3.1 nM.
Still for that read-out and setting: the same measure for B34: 39.6 nM; for B35: 5.6 nM; for B36: 3.9 nM.

The target in a further experiment is T4, human CD3 epsilon (human, UniProt P07766 23-126, limits assumed).
T4 construct: also called huCD3e
T4 sequence (P07766 23-126 limits assumed): as the sequence (P07766 23-126) above
The experiment can be described thus: Octet, crude lysate. Summed up: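 Octet binding of the anti-CD3 paTCE molecules was measured to cynomolgus CD3e-Fc with purified material and to human CD3 epsilon with crude lysate. Every variant carried PSMA.262 except CD3.23, which carried PSMA.5.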
With B1, the Kd is 8.2 nM.
Same read-out and setting: the same measure for B2: 17 nM.
The same measure, in the same setting: the same measure for B3: 6.2 nM; for B4: 11.9 nM; for B5: 12.9 nM.
As for B7, the Kd came to 13.5 nM.

The next experiment has as its target T2, human PSMA-Fc. The experiment can be described thus: Octet.
Take B6: binding was characterised by a dissociation constant (Kd) of 2.3 nM, the koff is 0.00024 s⁻¹ and the kon stood at 96000 M⁻¹ s⁻¹.
